For assay [1], the target named is T1, MICA*001 expressed at the cell surface (human, UniProt Q29983 24-297).
T1 construct: the protein on cells also has its transmembrane and cytoplasmic parts (Genbank AAB41060); also called C1R-MICA*001; C1R-MICA*01
T1 sequence: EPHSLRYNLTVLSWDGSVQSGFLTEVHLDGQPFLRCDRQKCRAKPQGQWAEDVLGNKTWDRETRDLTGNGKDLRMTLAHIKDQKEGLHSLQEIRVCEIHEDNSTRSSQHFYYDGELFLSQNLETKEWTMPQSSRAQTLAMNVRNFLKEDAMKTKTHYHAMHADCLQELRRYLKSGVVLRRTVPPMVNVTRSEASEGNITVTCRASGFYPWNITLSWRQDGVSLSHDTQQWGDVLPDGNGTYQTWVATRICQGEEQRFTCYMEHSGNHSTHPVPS
Kind of assay: flow cytometry on C1R transfectant cells, 4-parameter logistic fit. For orientation: In flow cytometry, cells or beads pass a laser one at a time.

The target in assay [2] is T2, MICB-Fc (R&D Systems 1599-MB) (human, UniProt Q29980 23-298, limits assumed).
T2 construct: Bought; also called human MICB-Fc; not shown: Fc of the bought fusion protein
T2 sequence: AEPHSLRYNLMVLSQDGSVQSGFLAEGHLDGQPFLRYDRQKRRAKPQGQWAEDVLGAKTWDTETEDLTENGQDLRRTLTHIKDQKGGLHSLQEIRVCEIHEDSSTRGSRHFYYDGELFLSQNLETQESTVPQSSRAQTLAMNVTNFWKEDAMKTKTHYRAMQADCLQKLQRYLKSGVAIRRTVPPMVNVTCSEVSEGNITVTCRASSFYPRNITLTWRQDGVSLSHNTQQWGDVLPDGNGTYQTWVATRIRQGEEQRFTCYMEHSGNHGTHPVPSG
The experiment in a line: SPR, antibody at 10 µg/ml injected over immobilized MICB-Fc. The procedure:
For cross-binding study, the human ULBP-1-Fc (R&D systems*), MICB-Fc (*), ULBP-2-Fc (*) and ULBP-3-Fc (*) recombinant proteins were covalently immobilized respectively on the flow cell one to four of a CM5 sensorchip. Anti-MICA antibodies (at a constant concentration of 10 μg/ml) were injected for 2 minutes at a flow rate of 10 μl/min onto the four flow cells in parallel. After each cycle, Sensorchip was regenerated by a five second injection of appropriate regeneration buffer.
A general note: In SPR one partner is held on a chip, and binding of the other changes the refractive index at the surface.

The target in assay [3] is T1, MICA*001 expressed at the cell surface. Kind of assay: cell-based or functional assay.
Assay [4] has as its target T3, MICA*007 expressed at the cell surface (human, UniProt Q29983 24-297).
T3 construct: also called C1R-MICA*007; C1R-MICA*07
T3 chain: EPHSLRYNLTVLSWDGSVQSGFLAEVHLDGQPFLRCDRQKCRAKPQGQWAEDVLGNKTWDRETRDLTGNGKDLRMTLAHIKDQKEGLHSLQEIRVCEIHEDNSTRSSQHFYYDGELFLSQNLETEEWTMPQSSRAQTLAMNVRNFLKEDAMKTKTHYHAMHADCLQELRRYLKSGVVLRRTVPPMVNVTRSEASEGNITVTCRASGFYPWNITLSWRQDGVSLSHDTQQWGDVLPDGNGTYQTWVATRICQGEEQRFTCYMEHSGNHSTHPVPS
The experiment in a line: flow cytometry on C1R transfectant cells, 4-parameter logistic fit.

B1: CHG1-M-MIA-16A8 (antibody, V domains shown)
VH: EVQLVESGGGLVKPGGSLKLSCAASGFTFSRYAMSWVRQTPEKRLEWVATIFSGGSYTYYPDSVKGRFTISRDNANNTLYLQMSSLKAEDTAMYFCARPNWERTFDYWGQGTTLTVSS
VL: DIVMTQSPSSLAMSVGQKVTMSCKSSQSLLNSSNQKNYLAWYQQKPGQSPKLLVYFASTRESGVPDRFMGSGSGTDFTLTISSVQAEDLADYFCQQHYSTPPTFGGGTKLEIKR
notes: also called CHG1-M-MIA2-16A8; chimeric anti-MICA 16A8
In general, EC50 refers to the concentration needed to bring the measured effect to its halfway point. Read a low EC50 as an effect from little substance. In turn, B1 registered an EC50 in assay [1] of 1.07 µg/mL. In addition, the binding result in assay [2] is “binds”.

B2: CHG1-M-MIA-20C6 (antibody, V domains shown)
VH: QITLKESGPGILKPSQTLSLTCSFSGFSLSTSGMGVGWIRQPSGKGLEWLAHIWWDDDKYYNPSLKSQLTISKDTSRNQVFLRITSVDTADTATYYCARRTQGYFDYWGQGTTLTVSS
VL: DIVMTQSPATLSVTPGDRVSLSCRASQSISDYLHWYQQKSHESPRLLIKYASQSISGIPSRFSGSGSGSDFTLSINSVEPEDVGVYYCQNGHSFPWTFGGGTKLEIKR
notes: also called chimeric anti-MICA 20C6
As for B2, in assay [3], the “CDC: EC50 of the increase in dead (7-AAD positive) Raji-MICA*01 cells with human complement” value worked out at 0.97 µg/mL. The EC50 in assay [4] is 0.4 µg/mL; in assay [1] it was 0.26 µg/mL.

B3: CHG1-M-MIA-6E4 (antibody, V domains shown)
VH: EVQLVESGGALVKPGGSLKLSCAASGFTFSYYAMSWVRQTPEKRLEWVATISRGGNYIYYTDSVKGRFTISRDNAKNTLYLQMTSLRSEDTAMFYCASISDYDGAWLAYWGQGTTLTVSS
VL: DVLMTQTPLSLPVSLGDQASISCRSSQSIIHTNGNTYLEWYLQKPGQSPKLLIYKISNRFSGVPDRFSGSGSGTDFTLKISRVEAEDLGVYYCFQGSHVPWTFGGGTKLEIKR
notes: also called chimeric anti-MICA 6E4
Take B3: the “CDC: EC50 of the increase in dead (7-AAD positive) Raji-MICA*01 cells with human complement” value in assay [3] was 1.01 µg/mL. In addition, the EC50 in assay [4] came out at 1.23 µg/mL; in assay [1], 1.96 µg/mL. Besides, the binding result in assay [2] was “binds”.

(Values after patent publication US20200299380A1 (published 2020).)
